Assay results taken from the Immune Epitope Database (IEDB).

Key:
HLA-A*30:01 = assay: IEDB peptide-MHC binding, purified MHC/competitive/radioactivity; filed as Kd, often an IC50 or EC50 that approximates it; ≥ and ≤ were set here for values at or beyond the usual limits of such assays
HLA-A*32:01 = assay: as above
HLA-A*02:01 [1] = assay: IEDB peptide-MHC binding, purified MHC/competitive/fluorescence; ≥ and ≤ were set here for values at or beyond the usual limits of such assays
HLA-A*24:02 = assay: IEDB peptide-MHC binding, purified MHC/competitive/radioactivity; filed as Kd, often an IC50 or EC50 that approximates it; ≥ and ≤ were set here for values at or beyond the usual limits of such assays
HLA-A*01:01 [2] = assay: IEDB peptide-MHC binding, purified MHC/direct/fluorescence; filed as Kd, often an IC50 or EC50 that approximates it; ≥ and ≤ were set here for values at or beyond the usual limits of such assays
HLA-B*15:01 = assay: as above
HLA-A*03:01 = assay: as above
HLA-B*58:01 = assay: as above
HLA-A*11:01 = assay: as above
HLA-A*31:01 = assay: as above
HLA-B*40:01 = assay: as above; details: source organism: Mammarenavirus lassaense
HLA-B*18:01 = assay: as above
HLA-A*02:03 = assay: IEDB peptide-MHC binding, purified MHC/competitive/radioactivity; filed as Kd, often an IC50 or EC50 that approximates it; ≥ and ≤ were set here for values at or beyond the usual limits of such assays; details: source organism: Dengue virus 1 Singapore/S275/1990
HLA-A*69:01 = assay: IEDB peptide-MHC binding, purified MHC/direct/fluorescence; filed as Kd, often an IC50 or EC50 that approximates it; ≥ and ≤ were set here for values at or beyond the usual limits of such assays
HLA-A*30:02 = assay: IEDB peptide-MHC binding, purified MHC/competitive/radioactivity; filed as Kd, often an IC50 or EC50 that approximates it; ≥ and ≤ were set here for values at or beyond the usual limits of such assays
HLA-B*07:02 = assay: IEDB peptide-MHC binding, purified MHC/direct/fluorescence; filed as Kd, often an IC50 or EC50 that approximates it; ≥ and ≤ were set here for values at or beyond the usual limits of such assays
HLA-A*02:01 [3] = assay: as above
HLA-B*27:05 = assay: as above
HLA-A*01:01 [4] = assay: IEDB peptide-MHC binding, purified MHC/competitive/radioactivity; filed as Kd, often an IC50 or EC50 that approximates it; ≥ and ≤ were set here for values at or beyond the usual limits of such assays
HLA-A*26:01 = assay: as above
HLA-A*02:01 [5] = assay: IEDB peptide-MHC binding, purified MHC/competitive/fluorescence; filed as Kd, often an IC50 or EC50 that approximates it; ≥ and ≤ were set here for values at or beyond the usual limits of such assays; details: source organism: human gammaherpesvirus 4
[6] = source organism: Vaccinia virus WR
[7] = source organism: Dengue virus 3 Martinique/1243/1999
[8] = source organism: Dengue virus 4 Philippines/H241/1956
[9] = source organism: Vibrio vulnificus
[10] = source organism: Dengue virus 2 Jamaica/1409/1983
[11] = source organism: Zaire ebolavirus
[12] = source organism: Vaccinia virus
[13] = source organism: Dengue virus 1 Brazil/97-11/1997
[14] = source organism: Human immunodeficiency virus type 1 (isolate YU2)
[15] = source organism: Escherichia coli
[16] = source organism: Orthohantavirus hantanense
[17] = source organism: Lassa virus Josiah

LQRGRLPLV
Kd (HLA-A*30:01; [6]): 93.3 nM

LTFNFTPKI
Kd (HLA-A*32:01; [6]): 110 nM

LVSKFMSNG
IC50 (HLA-A*02:01 [1]; [6]): ≥ 201000 nM

LWRTLGRNK
Kd (HLA-A*30:01; [7]): 478 nM

LYAVATTIL
Kd (HLA-A*24:02; [8]): 79.5 nM

MCFHQHLMY
Kd (HLA-A*01:01 [2]; source organism: Homo sapiens): 3330 nM | Kd (HLA-B*15:01; source organism: Homo sapiens): 1440 nM | Kd (HLA-A*03:01; source organism: Homo sapiens): 13600 nM | Kd (HLA-B*58:01; source organism: Homo sapiens): 937 nM | Kd (HLA-A*11:01; source organism: Homo sapiens): 8410 nM

MLVCGDDLV
IC50 (HLA-A*02:01 [1]; source organism: Hepatitis C virus genotype 1): 5000 nM

MQYMTIQQK
Kd (HLA-A*31:01; [9]): 346 nM | Kd (HLA-A*03:01; [9]): 203 nM

MTMNIVNFF
Kd (HLA-A*32:01; [6]): 1.93 nM

MYKLNKPTK
Kd (HLA-A*01:01 [2]; source organism: Camelpox virus M-96): ≥ 20000 nM

NAICSAVPSH
Kd (HLA-A*30:01; [10]): 6440 nM

NETGLELTL
Kd (HLA-B*40:01): 19 nM | Kd (HLA-B*18:01; source organism: Mammarenavirus lassaense): 16.7 nM

PLGVVTNST
IC50 (HLA-A*02:01 [1]; source organism: Sudan ebolavirus): ≥ 114000 nM

PLNEGIMAV
Kd (HLA-A*02:03): 118 nM | Kd (HLA-A*69:01; source organism: dengue virus type 1): ≥ 5000 nM

PQLSAIALG
IC50 (HLA-A*02:01 [1]; [11]): ≥ 423000 nM

QEKWMTGRM
Kd (HLA-B*18:01; source organism: Yellow fever virus): 3050 nM

QLLLQKYPP
IC50 (HLA-A*02:01 [1]; [12]): ≥ 93600 nM

QVCIDILRS
IC50 (HLA-A*02:01 [1]; [12]): ≥ 97100 nM

QVDQGIEYY
Kd (HLA-A*01:01 [2]; source organism: Mycobacterium tuberculosis): 119 nM

RAVLDDGIY
Kd (HLA-A*30:02; [13]): 44.8 nM

RAWDPQPAM
Kd (HLA-B*07:02; source organism: Mus musculus): 36.4 nM

RFKKESSLA
Kd (HLA-A*30:01; [6]): 0.305 nM

RFRKKKKVY
Kd (HLA-A*01:01 [2]; source organism: Listeria monocytogenes): ≥ 20000 nM

RFSTSLLFL
Kd (HLA-A*24:02; [8]): 77.1 nM

RGTTFAEGV
IC50 (HLA-A*02:01 [1]; [11]): 9300 nM

RIKQIINMW
Kd (HLA-A*01:01 [2]; [14]): 5560 nM | Kd (HLA-A*03:01; [14]): 3660 nM | Kd (HLA-B*58:01; [14]): 884 nM

RILAYGPCL
Kd (HLA-A*02:01 [3]; [15]): 418 nM | Kd (HLA-A*69:01; [15]): ≥ 20000 nM

RIYSDPLAL
Kd (HLA-A*32:01; [10]): 14100 nM

RLKPVGSAY
Kd (HLA-B*15:01; [16]): 357 nM | Kd (HLA-B*07:02; [16]): 676 nM | Kd (HLA-B*27:05; [16]): 8420 nM | Kd (HLA-A*31:01; [16]): 401 nM | Kd (HLA-A*03:01; [16]): 214 nM | Kd (HLA-A*11:01; [16]): 3630 nM

RRLVKVLNN
Kd (HLA-B*27:05; source organism: Mycobacterium avium 104): 4370 nM

RSCTLPPLRY
Kd (HLA-A*30:02; [10]): 15.5 nM

RTIFNFHLI
Kd (HLA-A*32:01; [6]): 2.09 nM

RTNNAELDF
Kd (HLA-A*32:01; [6]): 131 nM

RTYGLRNSL
Kd (HLA-A*32:01; [6]): 0.626 nM

RYRFAFLYL
Kd (HLA-A*30:01; [6]): 0.169 nM

RYRQRLISL
Kd (HLA-A*30:01; [6]): 5.17 nM

SGVLWDVPSP
Kd (HLA-A*30:01; [7]): 3670 nM

SIPATLFVWY
Kd (HLA-A*01:01 [4]; [13]): ≥ 20500 nM | Kd (HLA-A*26:01; [13]): 128 nM

SSSTEVETY
Kd (HLA-B*58:01; source organism: Influenza A virus (A/New York/124/2001(H3N2))): 495 nM

SVIEKMEAL
Kd (HLA-A*26:01; source organism: Dengue virus 2 16681-PDK53): 51 nM

SVRLLNYFK
Kd (HLA-A*30:01; [6]): 0.238 nM

TFKNPHAKK
Kd (HLA-A*30:01; [10]): 1460 nM

TLCDMIKGT
IC50 (HLA-A*02:01 [1]; [12]): 23000 nM

TLFIGSHVV
Kd (HLA-A*02:01 [5]): 1.4 nM

TSLTQKVVIF
Kd (HLA-A*01:01 [4]; [7]): 8960 nM

TTKATTQIA
Kd (HLA-A*30:01; [6]): 6.52 nM

TTTLEETKF
Kd (HLA-B*58:01; source organism: SARS-CoV1): 11700 nM | Kd (HLA-A*11:01; source organism: SARS-CoV1): ≥ 109000 nM

VFFTFVLLL
Kd (HLA-A*24:02; [7]): 258 nM

VHSWEDIPY
Kd (HLA-A*30:02; [8]): 3360 nM

VIMEYHLLF
Kd (HLA-A*32:01; source organism: Vaccinia virus Copenhagen): ≥ 77800 nM

VLTLATGPIL
Kd (HLA-A*30:01; source organism: Dengue virus 4 Dominica/814669/1981): 1330 nM

VQLLGRRFV
Kd (HLA-A*02:01 [3]; [9]): ≥ 20000 nM | Kd (HLA-A*69:01; [9]): ≥ 20000 nM

VSETQHGTIL
Kd (HLA-A*01:01 [4]; [7]): ≥ 70400 nM

VSNRCPICK
Kd (HLA-A*03:01; [17]): 882 nM | Kd (HLA-A*11:01; [17]): 47.2 nM

WAFWETKKN
IC50 (HLA-A*02:01 [1]; [11]): ≥ 212000 nM

YSDPLALRE
Kd (HLA-A*01:01 [4]; [13]): 262 nM
